# Reference: patent US20120172293A1 (Takeda / Millennium, published 2012)
# Non-standard residues stand in square brackets, D forms with d. No end group written: not given here. Phe(4-Me) = Cc1ccc(C[C@H](N)C(=O)O)cc1; Phe(2-F) = N[C@@H](Cc1ccccc1F)C(=O)O; NMeF = CN[C@@H](Cc1ccccc1)C(=O)O; Cha = N[C@@H](CC1CCCCC1)C(=O)O; 4Amb = NCc1ccc(C(=O)O)cc1; Iva = CC[C@](C)(N)C(=O)O; Ac3c = NC1(C(=O)O)CC1; Aib = CC(C)(N)C(=O)O
# T1: human Y2 receptor (human, UniProt P49146 1-381)
# T1 construct: whole, on cells; used as membrane fraction of hY2R/CHO cells; also called human NPY2R; hY2R
# T1 sequence (looked up): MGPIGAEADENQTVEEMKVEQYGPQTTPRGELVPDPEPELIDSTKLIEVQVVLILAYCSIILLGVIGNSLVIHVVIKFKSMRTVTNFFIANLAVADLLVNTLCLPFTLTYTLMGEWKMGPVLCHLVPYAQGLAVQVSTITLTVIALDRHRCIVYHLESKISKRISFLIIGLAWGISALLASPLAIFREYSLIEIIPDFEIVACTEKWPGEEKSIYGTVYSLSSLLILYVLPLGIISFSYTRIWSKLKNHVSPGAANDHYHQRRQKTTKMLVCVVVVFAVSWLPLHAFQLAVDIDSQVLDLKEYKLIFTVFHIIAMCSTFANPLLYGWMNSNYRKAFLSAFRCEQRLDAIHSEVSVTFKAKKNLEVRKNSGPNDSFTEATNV
# B1: Ac-[D-Pro24, Cha27,36, Acpc28, Aib31]-PYY(23-36) (peptide)
# peptide: Ac-S[dP]RH[Cha][Ac3c]NL[Aib]TRQR[Cha]-NH2
# SMILES: CC(=O)N[C@@H](CO)C(=O)N1CCC[C@@H]1C(=O)N[C@@H](CCCNC(=N)N)C(=O)N[C@@H](Cc1c[nH]cn1)C(=O)N[C@@H](CC1CCCCC1)C(=O)NC1(C(=O)N[C@@H](CC(N)=O)C(=O)N[C@@H](CC(C)C)C(=O)NC(C)(C)C(=O)N[C@H](C(=O)N[C@@H](CCCNC(=N)N)C(=O)N[C@@H](CCC(N)=O)C(=O)N[C@@H](CCCNC(=N)N)C(=O)N[C@@H](CC2CCCCC2)C(N)=O)[C@@H](C)O)CC1
# notes: also called compound No. 145
# B2: Ac-[Arg20, D-Tyr21, D-Pro24, Cha27,28,36, Aib31]-PYY(20-36) (peptide)
# peptide: Ac-R[dY]AS[dP]RH[Cha][Cha]NL[Aib]TRQR[Cha]-NH2
# SMILES: CC(=O)N[C@@H](CCCNC(=N)N)C(=O)N[C@H](Cc1ccc(O)cc1)C(=O)N[C@@H](C)C(=O)N[C@@H](CO)C(=O)N1CCC[C@@H]1C(=O)N[C@@H](CCCNC(=N)N)C(=O)N[C@@H](Cc1c[nH]cn1)C(=O)N[C@@H](CC1CCCCC1)C(=O)N[C@@H](CC1CCCCC1)C(=O)N[C@@H](CC(N)=O)C(=O)N[C@@H](CC(C)C)C(=O)NC(C)(C)C(=O)N[C@H](C(=O)N[C@@H](CCCNC(=N)N)C(=O)N[C@@H](CCC(N)=O)C(=O)N[C@@H](CCCNC(=N)N)C(=O)N[C@@H](CC1CCCCC1)C(N)=O)[C@@H](C)O
# notes: also called compound No. 164
# B3: 4-Aminomethylbenzoyl-[Ala26, Ile28,31, Phe(4Me)36]-PYY(25-36) (peptide)
# peptide: [4Amb]RAYINLITRQR[Phe(4-Me)]-NH2
# modifications: N-terminus assumed
# SMILES: CC[C@H](C)[C@H](NC(=O)[C@H](Cc1ccc(O)cc1)NC(=O)[C@H](C)NC(=O)[C@H](CCCNC(=N)N)NC(=O)c1ccc(CN)cc1)C(=O)N[C@@H](CC(N)=O)C(=O)N[C@@H](CC(C)C)C(=O)N[C@H](C(=O)N[C@H](C(=O)N[C@@H](CCCNC(=N)N)C(=O)N[C@@H](CCC(N)=O)C(=O)N[C@@H](CCCNC(=N)N)C(=O)N[C@@H](Cc1ccc(C)cc1)C(N)=O)[C@@H](C)O)[C@@H](C)CC
# notes: also called compound No. 15
# B4: Ac-[D-Pro24, Iva27, Cha28,36, Aib31]-PYY(23-36) (peptide)
# peptide: Ac-S[dP]RH[Iva][Cha]NL[Aib]TRQR[Cha]-NH2
# SMILES: CC[C@](C)(NC(=O)[C@H](Cc1c[nH]cn1)NC(=O)[C@H](CCCNC(=N)N)NC(=O)[C@H]1CCCN1C(=O)[C@H](CO)NC(C)=O)C(=O)N[C@@H](CC1CCCCC1)C(=O)N[C@@H](CC(N)=O)C(=O)N[C@@H](CC(C)C)C(=O)NC(C)(C)C(=O)N[C@H](C(=O)N[C@@H](CCCNC(=N)N)C(=O)N[C@@H](CCC(N)=O)C(=O)N[C@@H](CCCNC(=N)N)C(=O)N[C@@H](CC1CCCCC1)C(N)=O)[C@@H](C)O
# notes: also called compound No. 175
# B5: Ac-[D-Pro24, Cha27,28, Aib31, Phe(2F)36]-PYY(23-36) (peptide)
# peptide: Ac-S[dP]RH[Cha][Cha]NL[Aib]TRQR[Phe(2-F)]-NH2
# SMILES: CC(=O)N[C@@H](CO)C(=O)N1CCC[C@@H]1C(=O)N[C@@H](CCCNC(=N)N)C(=O)N[C@@H](Cc1c[nH]cn1)C(=O)N[C@@H](CC1CCCCC1)C(=O)N[C@@H](CC1CCCCC1)C(=O)N[C@@H](CC(N)=O)C(=O)N[C@@H](CC(C)C)C(=O)NC(C)(C)C(=O)N[C@H](C(=O)N[C@@H](CCCNC(=N)N)C(=O)N[C@@H](CCC(N)=O)C(=O)N[C@@H](CCCNC(=N)N)C(=O)N[C@@H](Cc1ccccc1F)C(N)=O)[C@@H](C)O
# notes: also called compound No. 194
# B6: 4-Aminomethylbenzoyl-[Ala26, Ile28,31, NMePhe36]-PYY(25-36) (peptide)
# peptide: [4Amb]RAYINLITRQR[NMeF]-NH2
# modifications: N-terminus assumed
# SMILES: CC[C@H](C)[C@H](NC(=O)[C@H](Cc1ccc(O)cc1)NC(=O)[C@H](C)NC(=O)[C@H](CCCNC(=N)N)NC(=O)c1ccc(CN)cc1)C(=O)N[C@@H](CC(N)=O)C(=O)N[C@@H](CC(C)C)C(=O)N[C@H](C(=O)N[C@H](C(=O)N[C@@H](CCCNC(=N)N)C(=O)N[C@@H](CCC(N)=O)C(=O)N[C@@H](CCCNC(=N)N)C(=O)N(C)[C@@H](Cc1ccccc1)C(N)=O)[C@@H](C)O)[C@@H](C)CC
# notes: also called compound No. 16
# How the values were obtained:
# [1] = biological target: T1, human Y2 receptor; test: RBA: [125I]-PYY displacement, hY2R/CHO membranes
# Summary of the method: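 Bound radioligand was collected by filtration on PEI-treated GF/C filters, washed with Tris/MgCl₂/NaCl/CHAPS buffer pH 7.4, and counted by scintillation; IC₅₀ values were calculated.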
# [2] = biological target: T1, human Y2 receptor; test: cell-based or functional assay
Binder,IC50 Ratio (vs PYY(3-36)) [1],"GBA EC50 Ratio (vs PYY(3-36)), [35S]GTPγS [2]"
B1,160 ratio,17 ratio
B2,0.44 ratio,0.66 ratio
B3,8.7 ratio,5.5 ratio
B4,6.4 ratio,2.6 ratio
B5,1.4 ratio,1.3 ratio
B6,120 ratio,45 ratio
